For test [1], the target named is cleaved, mature CDTb (from limited trypsinization of proCDTb) (Clostridioides difficile). As to the kind of experiment: negative-stain electron microscopy.
For test [2] the target is unchanged. As to the kind of experiment: SEC; CDTb oligomerization assay: 500 μg proCDTb at 1 mg/mL, untreated or with trypsin 1:20 (wt/wt) at 37°C for 20 min, with buffer or 2-fold molar excess of Fab; Superdex 200 Increase 10/300 GL in 20 mM Tris pH 8, 100 mM NaCl, 6 mM CaCl2.

This note sets out measurements from PMC10127577.

In test [1], “cleaved, mature CDTb (from limited trypsinization of proCDTb) (natural protein)” displayed a stoichiometry N of 14. In test [2], this substance gave a percent of cleaved CDTb oligomerized of 5%.
